Source: patent US20210246451, “APTAMER FOR ADAMTS5 AND USE FOR APTAMER FOR ADAMTS5” (RIBOMIC INC., published 2021)

What was measured:
Settings in all cases: tags: R&D Systems
[1] = target: T1, ADAMTS5 (UniProt Q9UNA0 Q9UNA0:262-622); experiment: inhibition; SDS-PAGE aggrecan cleavage; 81% inhibition in Table 9 method 1
T1 sequence: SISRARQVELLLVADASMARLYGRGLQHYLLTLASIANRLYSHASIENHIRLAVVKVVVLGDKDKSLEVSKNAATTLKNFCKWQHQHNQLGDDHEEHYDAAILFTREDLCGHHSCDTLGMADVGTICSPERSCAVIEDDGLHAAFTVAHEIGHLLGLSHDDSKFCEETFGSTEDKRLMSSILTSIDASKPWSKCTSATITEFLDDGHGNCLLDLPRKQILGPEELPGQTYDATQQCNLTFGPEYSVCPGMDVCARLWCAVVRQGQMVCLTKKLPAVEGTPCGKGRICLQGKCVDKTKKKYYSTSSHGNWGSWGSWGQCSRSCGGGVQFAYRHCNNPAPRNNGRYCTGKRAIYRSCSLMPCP
Experimental: As a substrate of ADAMTS5, the G1-IGD-G2 domain of aggrecan (manufactured by R&D systems) was used. ADAMTS5 specifically cleaves in between the 392nd glutamic acid and the 393rd alanine in the G1-IGD-G2 domain and produces two fragments. These fragments have faster electrophoretic mobility than uncleaved G1-IGD-G2. Thus, the enzyme activity of ADAMTS5 can be measured by quantifying the band intensity of G1-IGD-G2 by SDS-PAGE electrophoresis. The assay was performed in a solution A buffer with a reaction mixture volume of 10 μL. First, a mixture (10 μL) of a nucleic acid and ADAMTS5 was prepared and incubated at 25° C. for 15 min. […] The staining was performed according to the manual of Sigma-Aldrich and detected using STORM840 manufactured by GE Healthcare. […] The amount of uncleaved substrate in each reaction solution was quantified from the band intensity and the standard curve. […] The inhibition rate of the test substance was calculated using the following equation.
The aptamer having the sequence shown in SEQ ID NO: 26 was prepared by transcription by T7RNA polymerase, and the aptamers having the sequences shown in SEQ ID NOs: 27-29 were prepared by chemical synthesis. Whether these aptamers inhibit the enzyme activity of ADAMTS5 was evaluated by a method similar to that in Example 1. In the Table, “n.d.” means not determined.

[2] = target: T1, ADAMTS5; experiment: inhibition; method 2 ELISA; 95.9% at 2 nM
Experimental: (§1) The substrate cleavage efficiency of ADAMTS5 under these reaction conditions was 80-100%. The inhibition rate of the test substance was calculated using the following equation.
(§2) On the other hand, the aptamers having the sequences shown by the sequences of SEQ ID NOs: 11(34)-11(35) and SEQ ID NO: 15 were evaluated by the following method (evaluation method 2). The cleavage reaction of the substrate (aggrecan G1-IGD-G2) by ADAMTS5 was performed in the same manner as in Example 1 except the following points. The differences are that the final concentrations of ADAMTS5 and the substrate were respectively 0.2 nM and 400 nM (48 μg/mL), and that the enzyme reaction time was 30 min. […] The cleaved substrate was quantified by a sandwich ELISA method using two kinds of anti-aggrecan antibodies. […] Using this, the amount of cleaved substrate can be quantified. […] The inhibition rate of the test substance was calculated using the following equation.
(§3) The aptamers having the sequences shown in SEQ ID NOs: 28(l)-28(18) (SEQ ID NO: 28 lineage) and SEQ ID NOs: 29(1)-29(3) (SEQ ID NO: 29 lineage) were all produced by chemical synthesis. Whether these aptamers inhibit the enzyme activity of ADAMTS5 was evaluated by a method similar to that in Example 1 and Example 5. In the Table, “n.d.” means not determined. […] “n.d.” means not determined.

[3] = target: T1, ADAMTS5; experiment: inhibition; method 2 ELISA; method 1 92.9%
Experimental: The heat-treated reaction solution was electrophoresed by 7.5% SDS-PAGE and stained with SYPRO Orange (manufactured by Sigma-Aldrich). The staining was performed according to the manual of Sigma-Aldrich and detected using STORM840 manufactured by GE Healthcare. […] The amount of uncleaved substrate in each reaction solution was quantified from the band intensity and the standard curve. The substrate cleavage efficiency of ADAMTS5 under these reaction conditions was 80-100%. The inhibition rate of the test substance was calculated using the following equation.
On the other hand, the aptamers having the sequences shown by the sequences of SEQ ID NOs: 11(34)-11(35) and SEQ ID NO: 15 were evaluated by the following method (evaluation method 2). […] The cleaved substrate was quantified by a sandwich ELISA method using two kinds of anti-aggrecan antibodies. […] Using this, the amount of cleaved substrate can be quantified. […] The inhibition rate of the test substance was calculated using the following equation.
The aptamers having the sequences shown in SEQ ID NOs: 28(l)-28(18) (SEQ ID NO: 28 lineage) and SEQ ID NOs: 29(1)-29(3) (SEQ ID NO: 29 lineage) were all produced by chemical synthesis. Whether these aptamers inhibit the enzyme activity of ADAMTS5 was evaluated by a method similar to that in Example 1 and Example 5.

[4] = target: T1, ADAMTS5; experiment: inhibition; method 2 ELISA; 98.1% at 2 nM
Experimental: as §1, §2, §3

[5] = target: T1, ADAMTS5; experiment: inhibition; method 2 ELISA, 0.2 nM enzyme; method 1 77.5%
Experimental: as §1, §2, §3

Binder: CGUAGGGGCCUCCACAGCGUAAGCUUGGACUUAAACCACG (ssRNA, 2'-OMe at 1-3,5,6,16-19,23-27,34-40; 2'-F other pyrimidines) [SEQ ID NO: 28]
- IC50 [1]: 3.4 nM

Binder: CGUAGGGGCCUCCACAGCGUAAGCUUGGACUUAAACCACG (ssRNA, as SEQ 28 plus 2'-OMe at 20-22,31; 5' 40 kDa branched PEG; 3' idT) [28(18)]
- IC50 [2]: 0.029 nM

Binder: CGUAGGGGCCUCCACAGCAUUCGCUUGGACACAAACCACG (ssRNA, as SEQ 29 plus 2'-OMe at A31; 3' idT) [29(1)]
- IC50 [3]: 0.17 nM

Binder: CGUAGGGGCCUCCACAGCGUAAGCUUGGACUUAAACCACG (ssRNA, as SEQ 28 plus 2'-OMe at 20-22,31; 3' idT) [28(15)]
- IC50 [4]: 0.084 nM

Binder: CGUAGGGGCCUCCACAGCGUAAGCUUGGACUUAAACCACG (ssRNA, as SEQ 28 plus 2'-OMe at U31) [28(3)]
- IC50 [5]: 0.108 nM
